Here are results for 17 molecules from patent US20210246204A1 (Alector, published 2021).

Sequences and labels used below:
B1: S7AB-H8.9 (antibody, V domains shown)
VH: QVQLVQSGAEVKKPGASVKVSCKASGYAFTAAWMNWVRQAPGQGLEWIGRIFPGLGHTNYAQKFQGRATLTEDTSTSTAYMELSSLRSEDTAVYYCARDYSDYYFDYWGQGTLVTVSS
VL: DIQMTQSPSSLSASVGDRVTITCRGSQDINTYLNWYQQKPGKAPKLLIYYTSRLHSGVPSRFSGSGSGTDYTLTISSLQPEDFATYYCQQGNTKPWTFGQGTKLEIK
B2: S7AB-H8.13 (antibody, V domains shown)
VH: B1 VH with A31G, A32Y
VL: B1 VL with Q90G, K94L
B3: S7AB-H8.14 (antibody, V domains shown)
VH: B1 VH
VL: B1 VL with Q90G, K94L
B4: S7AB-H8.21 (antibody, V domains shown)
VH: B1 VH with A31E, A32T
VL: B1 VL with G25A, Q27E, N92G, K94L
B5: S7AB-H8.19 (antibody, V domains shown)
VH: B1 VH
VL: B1 VL with I29T, K94L
B6: S7AB-H8.17 (antibody, V domains shown)
VH: B1 VH with A31M, L55Y
VL: B1 VL with I29T, K94L
B7: S7AB-H8.18 (antibody, V domains shown)
VH: B1 VH with A31G, A32Y
VL: B1 VL with I29T, K94L
B8: S7AB-H8.22 (antibody, V domains shown)
VH: B1 VH with A31M, L55Y
VL: B1 VL with G25A, Q27E, N92G, K94L
B9: S7AB-H8.15 (antibody, V domains shown)
VH: B1 VH with A31E, L55Y
VL: B1 VL with Q90G, K94L
B10: S7AB-H8.25 (antibody, V domains shown)
VH: B1 VH with A31E, L55Y
VL: B1 VL with G25A, Q27E, N92G, K94L
B11: S7AB-H8.16 (antibody, V domains shown)
VH: B1 VH with A31E, A32T
VL: B1 VL with I29T, K94L
B12: S7AB-H8.23 (antibody, V domains shown)
VH: B1 VH with A31G, A32Y
VL: B1 VL with G25A, Q27E, N92G, K94L
B13: S7AB-H8.24 (antibody, V domains shown)
VH: B1 VH
VL: B1 VL with G25A, Q27E, N92G, K94L
B14: S7AB-H8.20 (antibody, V domains shown)
VH: B1 VH with A31E, L55Y
VL: B1 VL with I29T, K94L
B15: S7AB-H8.12 (antibody, V domains shown)
VH: B1 VH with A31M, L55Y
VL: B1 VL with Q90G, K94L
B16: S7AB-H8.10 (antibody, V domains shown)
VH: B1 VH with A31E, L55Y
VL: B1 VL
B17: S7AB-H8.11 (antibody, V domains shown)
VH: B1 VH with A31E, A32T
VL: B1 VL with Q90G, K94L

The term Kd denotes the free concentration of one partner at which half of the binding sites on the other are occupied at equilibrium, for simple one-to-one binding. A high value points to lower affinity. What is called koff is the rate constant with which the complex falls apart. High values mean fast dissociation, low ones slow dissociation. For orientation: kon means the second-order rate constant of association. A lower kon goes with slow association.

Substitutions are numbered along the chain they refer to.

Sequence of human Siglec-7 on primary human monocyte-derived dendritic cells (Q9Y286 19-467): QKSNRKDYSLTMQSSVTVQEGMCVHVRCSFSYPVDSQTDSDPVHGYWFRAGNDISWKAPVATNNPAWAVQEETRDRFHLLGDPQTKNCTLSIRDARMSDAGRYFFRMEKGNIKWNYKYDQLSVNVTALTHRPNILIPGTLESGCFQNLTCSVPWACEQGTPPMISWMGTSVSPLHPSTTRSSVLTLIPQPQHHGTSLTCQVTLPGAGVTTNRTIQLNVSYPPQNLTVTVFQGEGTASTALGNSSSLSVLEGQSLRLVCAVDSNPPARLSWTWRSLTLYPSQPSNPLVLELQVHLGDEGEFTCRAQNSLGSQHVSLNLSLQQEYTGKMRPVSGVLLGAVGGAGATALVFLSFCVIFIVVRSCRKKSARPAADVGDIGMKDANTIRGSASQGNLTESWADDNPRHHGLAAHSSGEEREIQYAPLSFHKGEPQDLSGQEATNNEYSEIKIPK

The target in the first assay is T1, histidine-tagged human Siglec-7 (NovoProtein) (human, UniProt Q9Y286 19-353).
T1 construct: Bought protein; also called recombinant human Siglec-7; recombinant Siglec-7; not shown: histidine tag
T1 sequence (Q9Y286 19-353 limits assumed): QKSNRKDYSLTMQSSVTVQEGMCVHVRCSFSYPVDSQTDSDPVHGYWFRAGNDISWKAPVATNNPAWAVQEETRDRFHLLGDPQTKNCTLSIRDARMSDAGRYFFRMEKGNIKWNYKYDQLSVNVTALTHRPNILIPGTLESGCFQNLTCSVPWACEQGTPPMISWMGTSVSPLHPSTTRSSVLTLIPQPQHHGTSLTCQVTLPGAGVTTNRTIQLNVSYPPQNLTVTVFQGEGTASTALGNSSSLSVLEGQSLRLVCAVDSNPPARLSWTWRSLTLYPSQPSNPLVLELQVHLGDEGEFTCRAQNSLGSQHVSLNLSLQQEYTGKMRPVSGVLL
Description: BLI, antibody captured. How it is done:
In this assay, the humanized antibodies were compared directly to S7AB. Briefly, the antibodies were captured on anti-human or anti-mouse IgG Fc Biosensors (Pall ForteBio). Varying concentrations (0-100 nM) of histidine-tagged human Siglec-7 (NovoProtein) were then bound to the captured anti-Siglec-7 surface (200 s association time, 900 s dissociation time). Multi-concentration kinetic analysis was performed using a 1:1 interaction model to extract association and dissociation rate constants (kₐ and kd, respectively) for each antibody. Apparent affinity constants (KD) were calculated from the ratio kd/kₐ.
The affinities of S7AB-H8 and variants S7AB-H8.1 through S7AB-H8.45 for human Siglec-7 were measured by BioLayer Interferometry according to the method described in Example 1 above.
For the molecule B1, the Kd is 0.527 nM, the “fold improvement over S7AB-H8” value amounted to 2 fold, the koff was determined as 4.82e-05 s⁻¹ and the kon came out at 91400 M⁻¹ s⁻¹.

As to B2, the Kd is 35.7 nM, the “fold improvement over S7AB-H8” value turned out to be 0.03 fold, the koff is 0.000303 s⁻¹ and the kon came out at 8500 M⁻¹ s⁻¹.

In the case of B3, the affinity, expressed as Kd, was 54.1 nM; the “fold improvement over S7AB-H8” value came to 0.02 fold; the koff came to 0.000176 s⁻¹; the kon was 3260 M⁻¹ s⁻¹.

In the case of B4, the Kd is 0.936 nM, the “fold improvement over S7AB-H8” value amounted to 1.1 fold, the koff stood at 0.000125 s⁻¹ and the kon was 133000 M⁻¹ s⁻¹.

Consider B5, for which the affinity, expressed as Kd, was 0.898 nM; the “fold improvement over S7AB-H8” value was 1.2 fold; the koff was 0.000112 s⁻¹; the kon came to 125000 M⁻¹ s⁻¹.

As for B6, the Kd is 0.814 nM, the “fold improvement over S7AB-H8” value was determined as 1.3 fold, the koff came out at 0.000104 s⁻¹ and the kon worked out at 128000 M⁻¹ s⁻¹.

As to B7, the Kd came to 0.712 nM, the “fold improvement over S7AB-H8” value amounted to 1.5 fold, the koff stood at 0.000142 s⁻¹ and the kon is 199000 M⁻¹ s⁻¹.

In the case of B8, the Kd was < 0.001 nM, the “fold improvement over S7AB-H8” value is > 1000 fold, the koff was < 1e-07 s⁻¹ and the kon is 135000 M⁻¹ s⁻¹.

With B9, the Kd turned out to be 2.6 nM, the “fold improvement over S7AB-H8” value is 0.4 fold, the koff came out at 0.000607 s⁻¹ and the kon is 233000 M⁻¹ s⁻¹.

For B10, the Kd was 0.265 nM, the “fold improvement over S7AB-H8” value came to 4 fold, the koff stood at 2.77e-05 s⁻¹ and the kon stood at 104000 M⁻¹ s⁻¹.

Consider B11, for which binding was characterised by a dissociation constant (Kd) of 2.53 nM, the “fold improvement over S7AB-H8” value was 0.4 fold, the koff was found to be 0.000165 s⁻¹ and the kon worked out at 65400 M⁻¹ s⁻¹.

Consider B12, for which the dissociation constant Kd is 0.235 nM, the “fold improvement over S7AB-H8” value worked out at 4.5 fold, the off-rate (koff) was found to be 5.53e-05 s⁻¹ and the kon was 235000 M⁻¹ s⁻¹.

B13: the affinity, expressed as Kd, was 0.0368 nM; the “fold improvement over S7AB-H8” value was determined as 28.5 fold; the koff was 4.81e-06 s⁻¹; the kon amounted to 131000 M⁻¹ s⁻¹.

Regarding B14, the Kd is 1.81 nM, the “fold improvement over S7AB-H8” value was found to be 0.6 fold, the koff came out at 0.000145 s⁻¹ and the kon is 79900 M⁻¹ s⁻¹.

Consider B15, for which binding was characterised by a dissociation constant (Kd) of 46.3 nM, the “fold improvement over S7AB-H8” value was 0.02 fold, the koff amounted to 0.000155 s⁻¹ and the kon was 3350 M⁻¹ s⁻¹.

As to B16, the affinity, expressed as Kd, was 1.62 nM; the “fold improvement over S7AB-H8” value was 0.6 fold; the koff came out at 8.14e-05 s⁻¹; the kon was found to be 50400 M⁻¹ s⁻¹.

With B17, the Kd is 124 nM, the “fold improvement over S7AB-H8” value is 0.01 fold, the koff turned out to be 0.000388 s⁻¹ and the kon stood at 3140 M⁻¹ s⁻¹.

Another assay addresses human Siglec-7 on primary human monocyte-derived dendritic cells (human, UniProt Q9Y286 19-467). Description: cell-based or functional assay.
On to B1, for which the “Fold increase in potency compared to AB-H8” value (“Fold increase … to AB-H8” below) amounted to 2.9 fold; the “Fold increase in potency compared to Chimeric Ab” value (“Fold increase … to Chimeric Ab” for short) stood at 8.8 fold; the “Maximal downregulation (% Siglec-7 remaining)” value was found to be 3.1%; the “Receptor downregulation, (EC50) (pM)” value is 116 pM.

For B2, the “Fold increase … to AB-H8” value was 0.1 fold; the “Fold increase … to Chimeric Ab” value is 0.5 fold; the “Maximal downregulation (% Siglec-7 remaining)” value is 43.3%; the “Receptor downregulation, (EC50) (pM)” value was 2270 pM.

Regarding B3, the “Fold increase … to AB-H8” value was determined as 0.2 fold; the “Fold increase … to Chimeric Ab” value worked out at 0.5 fold; the “Maximal downregulation (% Siglec-7 remaining)” value is 45.7%; the “Receptor downregulation, (EC50) (pM)” value was determined as 1950 pM.

As to B4, the “Fold increase … to AB-H8” value stood at 2.2 fold; the “Fold increase … to Chimeric Ab” value came out at 6.8 fold; the “Maximal downregulation (% Siglec-7 remaining)” value is 13.6%; the “Receptor downregulation, (EC50) (pM)” value came to 152 pM.

Turning to B5, the “Fold increase … to AB-H8” value is 3.5 fold; the “Fold increase … to Chimeric Ab” value worked out at 10.5 fold; the “Maximal downregulation (% Siglec-7 remaining)” value was found to be 6.7%; the “Receptor downregulation, (EC50) (pM)” value stood at 97.8 pM.

On to B6, for which the “Fold increase … to AB-H8” value worked out at 2.9 fold; the “Fold increase … to Chimeric Ab” value is 8.8 fold; the “Maximal downregulation (% Siglec-7 remaining)” value was found to be 8%; the “Receptor downregulation, (EC50) (pM)” value turned out to be 116 pM.

Regarding B7, the “Fold increase … to AB-H8” value amounted to 5 fold; the “Fold increase … to Chimeric Ab” value was 15.2 fold; the “Maximal downregulation (% Siglec-7 remaining)” value was determined as 18.9%; the “Receptor downregulation, (EC50) (pM)” value amounted to 67.3 pM.

With B8, the “Fold increase … to AB-H8” value came out at 3.1 fold; the “Fold increase … to Chimeric Ab” value turned out to be 9.4 fold; the “Maximal downregulation (% Siglec-7 remaining)” value is 3.9%; the “Receptor downregulation, (EC50) (pM)” value amounted to 109 pM.

B9: the “Maximal downregulation (% Siglec-7 remaining)” value turned out to be 85% and the “Receptor downregulation, (EC50) (pM)” value was > 3000 pM.

Consider B10, for which the “Fold increase … to AB-H8” value is 1.8 fold; the “Fold increase … to Chimeric Ab” value was determined as 5.4 fold; the “Maximal downregulation (% Siglec-7 remaining)” value is 9.2%; the “Receptor downregulation, (EC50) (pM)” value came to 189 pM.

As to B11, the “Fold increase … to AB-H8” value turned out to be 1 fold; the “Fold increase … to Chimeric Ab” value came to 2.9 fold; the “Maximal downregulation (% Siglec-7 remaining)” value came to 10.1%; the “Receptor downregulation, (EC50) (pM)” value worked out at 348 pM.

Regarding B12, the “Fold increase … to AB-H8” value was 3.8 fold; the “Fold increase … to Chimeric Ab” value was 11.4 fold; the “Maximal downregulation (% Siglec-7 remaining)” value was found to be 17.2%; the “Receptor downregulation, (EC50) (pM)” value was 90.1 pM.

On to B13, for which the “Fold increase … to AB-H8” value is 2.6 fold; the “Fold increase … to Chimeric Ab” value amounted to 8 fold; the “Maximal downregulation (% Siglec-7 remaining)” value came to 4.3%; the “Receptor downregulation, (EC50) (pM)” value is 129 pM.

As for B14, the “Fold increase … to AB-H8” value worked out at 1.4 fold; the “Fold increase … to Chimeric Ab” value worked out at 4.2 fold; the “Maximal downregulation (% Siglec-7 remaining)” value is 10.6%; the “Receptor downregulation, (EC50) (pM)” value turned out to be 245 pM.

For B15, the “Fold increase … to AB-H8” value was 0.01 fold; the “Fold increase … to Chimeric Ab” value came to 0.04 fold; the “Maximal downregulation (% Siglec-7 remaining)” value amounted to 61.3%; the “Receptor downregulation, (EC50) (pM)” value is 25400 pM.

For the molecule B16, the “Fold increase … to AB-H8” value was 1.7 fold; the “Fold increase … to Chimeric Ab” value was found to be 5.2 fold; the “Maximal downregulation (% Siglec-7 remaining)” value is 7%; the “Receptor downregulation, (EC50) (pM)” value was 197 pM.

As to B17, the “Fold increase … to AB-H8” value is 0.05 fold; the “Fold increase … to Chimeric Ab” value worked out at 0.1 fold; the “Maximal downregulation (% Siglec-7 remaining)” value stood at 74.7%; the “Receptor downregulation, (EC50) (pM)” value was 7140 pM.
